Measurements from patent US20200171163A1 (Daiichi Sankyo, published 2020).
Each block holds one binder with its values, some of them ahead of it.

Legend:
[1] = target: T1, human CDH6 (full-length, on cells) (human, UniProt P55285 54-790); experiment: competition flow cytometry on 786-O/hCDH6 cells; competitor: Alexa 488-labeled H01L02 at 5 nM; unlabeled antibody varied [lower panel]
T1 construct: also called hCDH6; full-length hCDH6
T1 sequence: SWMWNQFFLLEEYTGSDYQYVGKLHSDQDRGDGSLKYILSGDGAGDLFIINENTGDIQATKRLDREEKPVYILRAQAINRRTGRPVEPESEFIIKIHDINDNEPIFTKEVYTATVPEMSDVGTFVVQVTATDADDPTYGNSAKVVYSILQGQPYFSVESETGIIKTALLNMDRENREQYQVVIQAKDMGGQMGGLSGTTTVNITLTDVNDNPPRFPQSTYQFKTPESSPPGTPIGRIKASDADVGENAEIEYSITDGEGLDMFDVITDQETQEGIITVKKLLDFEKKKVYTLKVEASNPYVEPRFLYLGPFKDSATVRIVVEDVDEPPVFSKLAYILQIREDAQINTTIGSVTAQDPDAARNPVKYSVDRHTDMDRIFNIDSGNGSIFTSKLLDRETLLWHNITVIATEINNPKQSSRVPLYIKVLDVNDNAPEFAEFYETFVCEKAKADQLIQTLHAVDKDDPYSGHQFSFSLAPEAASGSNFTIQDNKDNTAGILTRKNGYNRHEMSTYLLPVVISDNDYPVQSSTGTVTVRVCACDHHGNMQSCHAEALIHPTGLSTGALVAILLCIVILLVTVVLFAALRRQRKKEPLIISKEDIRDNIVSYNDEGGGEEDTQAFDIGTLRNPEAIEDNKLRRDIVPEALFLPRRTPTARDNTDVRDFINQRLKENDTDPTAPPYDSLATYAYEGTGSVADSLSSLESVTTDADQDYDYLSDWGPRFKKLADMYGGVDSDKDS
Description: Thereafter, the cells were suspended by the addition of labeled NOV0712 or labeled H01L02 (final concentration: 5 nM) and, further, the addition of each of the 4 humanized hG019 antibodies (clone Nos: H01L02, H02L02, H02L03 and H04L02), which had been prepared in Example 5)-5-3, or the anti-CDH6 antibody NOV0712, which had been prepared in Reference Example 1, or human IgG1 (Calbiochem) as a negative control (final concentration: as shown in the abscissa of FIG. 9). The cells were left standing at 4° C. for 1 hour. Thereafter, the cells were washed twice with PBS supplemented with 5% FBS, followed by detection using a flow cytometer (Canto II; BD Biosciences). The data was analyzed using FlowJo (Tree Star, Inc.). The abscissa depicts the final concentration of the added unlabeled antibody, and the ordinate depicts the amount of the antibody bound based on mean fluorescence intensity. When unlabeled NOV0712 is added to cells supplemented with labeled NOV0712, the amount of the labeled antibody bound is decreased by replacement with the unlabeled antibody in an addition concentration-dependent manner because they compete with each other for binding to the same epitope. […] Likewise, when each of the 4 unlabeled humanized hG019 antibodies is added to cells supplemented with labeled H01L02, the amount of the labeled antibody bound is decreased by replacement with the unlabeled antibody in an addition concentration-dependent manner because they compete with each other for binding to the same epitope.

[2] = target: T1, human CDH6 (full-length, on cells); experiment: flow cytometry; hCDH6-transfected 293T cells (open) vs untransfected control cells (shaded); antibody 10 ng/mL; anti-rat IgG-FITC
Description: The human CDH6-binding activity of the rat anti-CDH6 antibody produced in Example 1)-7 was evaluated by flow cytometry. […] The cells were cultured overnight under conditions of 37° C. and 5% CO₂, and thereafter, a cell suspension was prepared. […] Thereafter, the cells were suspended by the addition of each of the 4 rat anti-CDH6 monoclonal antibodies (clone Nos: rG019, rG055, rG056 and rG061), which had been prepared in Example 1)-7, or rat IgG control (R&D Systems, Inc.) (final concentration: 10 ng/mL). The cells were left standing at 4° C. for 1 hour. The cells were washed twice with PBS supplemented with 5% FBS, and then suspended by the addition of Anti-Rat IgG (whole molecule)-FITC antibody produced in rabbit (Sigma-Aldrich Co. LLC) that had been 50-fold diluted with PBS supplemented with 5% FBS. The cells were left standing at 4° C. for 1 hour. The cells were washed twice with PBS supplemented with 5% FBS, followed by detection using a flow cytometer (FC500; Beckman Coulter, Inc.). The data was analyzed using FlowJo (Tree Star, Inc.). In the histogram of FIG. 1, the abscissa depicts FITC fluorescence intensity indicating the amount of the antibody bound, and the ordinate depicts a cell count. […] The rat IgG control binds to neither of the cells.

B1: H02L02 antibody (antibody, human IgG1, kappa, V domains shown)
VH: EVQLVQSGAEVKKPGASVKVSCKASGYTFTRNFMHWVRQAPGQGLEWMGWIYPGDGETEYNQKFQGRVTITADRSTSTAYMELSSLRSEDTAVYFCARGVYGGFAGGYFDFWGQGTLVTVSS
VL: DIQMTQSPSSLSASVGDRVTITCKASQNIYKNLAWYQQKPGKAPKLLIYDANTLQTGVPSRFSGSGSGSDFTLTISSLQPEDFATYFCQQYYSGWAFGQGTKVEIKR
notes: Humanized IgG1/kappa (hH02 + hL02); also called humanized hG019 antibody H02L02
IC50 (read off the curve) [1]: ~3 nM

B2: H02L03 antibody (antibody, human IgG1, kappa, V domains shown)
VH: EVQLVQSGAEVKKPGASVKVSCKASGYTFTRNFMHWVRQAPGQGLEWMGWIYPGDGETEYNQKFQGRVTITADRSTSTAYMELSSLRSEDTAVYFCARGVYGGFAGGYFDFWGQGTLVTVSS
VL: DIQMTQSPSSLSASVGDRVTITCKASQNIYKNLAWYQQKLGEGPKLLIYDANTLQTGVPSRFSGSGSGTDFTLTISSLQPEDFATYYCQQYYSGWAFGQGTKVEIKR
notes: Humanized IgG1/kappa (hH02 + hL03); also called humanized hG019 antibody H02L03
IC50 (read off the curve) [1]: ~10 nM

B5: rG019 antibody (antibody, V domains shown)
VH: QVQLQQSGAELVKPGSSVKISCKASGYTFTRNFMHWIKQQPGNGLEWIGWIYCGDGETEYNQKFNGKATLTADRSSSTAYMELSRLTSEDSAVYFCARGVYGGFAGGYFDFWGQGVMVTVSS
VL: DIQMTQSPSLLSASVGDRVTLNCKASQNIYKNLAWYQQKLGEGPKLLIYDANTLQTGIPSRFSGSGSGSDFTLTISSLQPEDVATYFCQQYYSGWAFGGVTNLELKRA
notes: Rat monoclonal purified from hybridoma; also called rat anti-CDH6 monoclonal antibody clone rG019
binding result [2]: binds

B7: rG061 antibody (antibody, V domains shown)
VH: EVQLQESGPGLVKPSQSLSLTCSVTGYSITTYYWGWIRKFPGNKMEWMGYISYSGRTSYNPSLKSRMSITRDASKNQFFLQLNSVTTDDTATYYCARSPINHGGYWYFDFWGPGTMVTVSS
VL: DVQMTQSPSYLAASPGESVSISCKATKSISNYLAWYQQKPGEAYKVLIYSGSTLQSGTPSRFSGSGSGTDFTLTIRSLEPEDFGLYSCQQYYEKPLTFGSGTKLEIKR
notes: Rat monoclonal purified from hybridoma; also called rat anti-CDH6 monoclonal antibody clone rG061
binding result [2]: binds

Second part, the binder after the results:

IC50 (read off the curve) [1]: ~10 nM
B3: H04L02 antibody (antibody, human IgG1, kappa, V domains shown)
VH: QVQLVQSGAEVKKPGASVKVSCKASGYTFTRNFMHWIRQAPGQGLEWMGWIYPGDGETEYAQKFQGRVTLTADRSTSTAYMELSSLRSEDTAVYYCARGVYGGFAGGYFDFWGQGTLVTVSS
VL: DIQMTQSPSSLSASVGDRVTITCKASQNIYKNLAWYQQKPGKAPKLLIYDANTLQTGVPSRFSGSGSGSDFTLTISSLQPEDFATYFCQQYYSGWAFGQGTKVEIKR
notes: Humanized IgG1/kappa (hH04 + hL02); also called humanized hG019 antibody H04L02

IC50 (read off the curve) [1]: ~5 nM
B4: H01L02 antibody (antibody, human IgG1, kappa, V domains shown)
VH: EVQLVQSGAEVKKPGASVKVSCKASGYTFTRNFMHWVRQAPGQGLEWMGWIYPGDGETEYAQKFQGRVTITADTSTSTAYMELSSLRSEDTAVYYCARGVYGGFAGGYFDFWGQGTLVTVSS
VL: DIQMTQSPSSLSASVGDRVTITCKASQNIYKNLAWYQQKPGKAPKLLIYDANTLQTGVPSRFSGSGSGSDFTLTISSLQPEDFATYFCQQYYSGWAFGQGTKVEIKR
notes: Humanized IgG1/kappa (hH01 + hL02); also called humanized hG019 antibody H01L02; labeled H01L02

binding result [2]: binds
B6: rG055 antibody (antibody, V domains shown)
VH: EVQLQESGPGLVRPSQSLSLSCSVTDYSITSNYWGWIRRFPGNKMEWMGYITYSGYTSYNPSLQSRISITRDTSKNQFFLQLNSVTAEDTATYYCARSINHGGYSYVVDAWGPGASVTVSS
VL: DVQMTHSPSYLAASPGESVSISCKTSKNISNYLVWYQQKPGEAYKLLIYSGSTLQSGTPSRFSGSGSGTDFTLTIRSLEPEDFGLYFCQQYYEKPFTFGSGTKLEIKR
notes: Rat monoclonal purified from hybridoma; also called rat anti-CDH6 monoclonal antibody clone rG055

binding result [2]: binds
B8: rG056 antibody (antibody, V domains shown)
VH: EVQLQESGPGLVKPSQSLSLTCSVTDYSITTYFWGWIRKFPGNKMEWMGYMSYRGGTSYNPSLKSRISITRDTSKNQFFLQLNSVTTEDTATYYCARCPNYGGHSLVFDYWGQGVMVTVSS
VL: DVQMTQSPSSLAASPGESVSISCRATKSIGIYLAWYQQKPGKTFKLLIYSGSTLQSGTPSRFSGSGSGTDFTLTIRSLEPEDFGLYFCQQFYENPFTFGSGTKLEIRR
notes: Rat monoclonal purified from hybridoma; also called rat anti-CDH6 monoclonal antibody clone rG056
